Several values for one entry are separate records, joined by “and”; a condition that tells them apart may be missing. Equal entries are not always repeated. Residues, ends and D or L forms follow the SMILES beside them. *: point of attachment. X1 = CC1(C)C(/C=C/C=C/C=C/C=C2/N(CCCCCC(=O)NCCN3C(=O)CC(*)C3=O)c3ccc4ccccc4c3C2(C)C)=[N+](CCCCS(=O)(=O)[O-])c2ccc3ccccc3c21
Legend:
[1] = Blood clearance of ICG-pHLIP after single tail vein injection; assay type: in vivo, mouse; conditions: for Concentration in blood, Mean ± St. D.: 5 animals; for Concentration in blood, Mean ± St. D. / Concentration in blood: 2.5 nmol tail vein; for Concentration in blood: individual animal, listed as ICG-Var3
Procedure: (§1) BALB/cAcNHsd mice ranging in age from 5 to 6 weeks obtained from Envigo RMS Inc were used in the study. Mouse mammary 4T1 cancer cells were subcutaneously implanted in the right flank (8×10^5 cells/0.1 mL/flank) of adult female mice. Triple negative 4T1 tumor model closely mimics stage IV of human breast cancer. When tumors reached 5-6 mm in diameter, single tail vein injections of 2.5 nmol (or 0.5 mg/kg) of ICG-pHLIP in sterile PBS with 5% DMSO or 5% Ethanol (volume of the injection was 100 μl) were performed. The whole body and ex vivo imaging was performed using a Stryker 1588 AIM clinical imaging system with L10 AIM Light Source, 1588 AIM Camera using a 10 mm or 5 mm scope.
(§2) Animals were euthanized at time points: 5 min, 1 hr, 2 hrs, 4 hrs, 6 hrs, 16 hrs, 26 hrs and 48 hrs. […] 100 μl of blood was collected immediately after euthanasia and mixed with 12.5 μl of citrate-dextrose anticoagulant solution (kept at 4° C.), and necropsy was performed. Tumor, muscles, skin, heart, lungs, liver, spleen, kidneys, brain, pancreas, bone, stomach, small and large intestines were collected, imaged immediately after collection, weighed, and fast frozen in liquid nitrogen.
Blood samples mixed with of anti-coagulant solution were placed in 384 well plates (MatTek, glass bottom) (15 μL per well) and imaged on an Odyssey IR scanner (Li-Cor Biosciences). […] The same amounts (15 μL) of blood samples were placed in 384 well plate and imaged together with all other blood samples. The digital images were processed using the Image J program to calculate mean fluorescence intensity. The calibration curve (known concentration of ICG-pHLIP in blood samples vs intensity) was constructed to calculate the amount of ICG-pHLIP in blood samples collected from the mice at different times after construct administration.

4T1 tumor = test: Ex vivo NIRF imaging of organs (biodistribution and kinetics of ICG-pHLIP); assay type: in vivo, mouse; conditions: for Fluorescence intensity, Bone / Fluorescence intensity, Brain / Fluorescence intensity, Heart / Fluorescence intensity, Kidneys / Fluorescence intensity, L. Intest. / Fluorescence intensity, Liver / Fluorescence intensity, Lungs / Fluorescence intensity, Muscle / Fluorescence intensity, Pancreas / Fluorescence intensity, S. Intest. / Fluorescence intensity, Skin / Fluorescence intensity, Spleen / Fluorescence intensity, Stomach / Fluorescence intensity, Tumor: mean ± St. D., 5 animals
Procedure: as §1, §2
The ex vivo imaging of organs was performed using a Stryker 1588 AIM clinical imaging system with L10 AIM Light Source, 1588 AIM Camera using a 10 mm scope. The lens was spaced 4.3 cm away from the surface of the organs within an enclosed (light protected) area. The NIRF imaging of each organ was performed at three different laser intensities set on a hexadecimal scale as 0B-22 (low), 12-5C (medium), and 20-3A (high). The digital images of organs were processed using program written in Python to determine the average level of intensity recorded in the green channel. Since organs were imaged in the dark on black mats, the background signal was determined by introducing an intensity threshold. All the pixels with intensity from the green channel above the set threshold were counted and the average green intensity per pixel was calculated. Thus, the mean intensity per organ (Table 17a) and averaged over organs from 5 animals (Table 17b) was calculated.

In the case of `CC(C)C[C@H](NC(=O)[C@H](Cc1ccc(O)cc1)NC(=O)[C@H](C)NC(=O)[C@H](CCCNC(=N)N)NC(=O)[C@H](Cc1c[nH]c2ccccc12)NC(=O)[C@@H]1CCCN1C(=O)[C@H](CC(N)=O)NC(=O)[C@H](CCC(N)=O)NC(=O)[C@H](CC(=O)O)NC(=O)[C@H](CC(=O)O)NC(=O)[C@H](CSC1CC(=O)N(CCNC(=O)CCCCCN2/C(=C/C=C/C=C/C=C/C3=[N+](CCCCS(=O)(=O)[O-])c4ccc5ccccc5c4C3(C)C)C(C)(C)c3c2ccc2ccccc32)C1=O)NC(=O)[C@H](C)N)C(=O)N[C@@H](CC(=O)O)C(=O)N[C@@H](CC(C)C)C(=O)N[C@@H](CC(C)C)C(=O)N[C@@H](Cc1ccccc1)C(=O)N1CCC[C@H]1C(=O)N[C@H](C(=O)N[C@@H](CC(=O)O)C(=O)N[C@H](C(=O)N[C@@H](CC(C)C)C(=O)N[C@@H](CC(C)C)C(=O)N[C@@H](CC(C)C)C(=O)N[C@@H](CC(=O)O)C(=O)N[C@@H](CC(C)C)C(=O)N[C@@H](CC(C)C)C(=O)N[C@@H](Cc1c[nH]c2ccccc12)C(=O)N[C@@H](C)C(=O)O)[C@@H](C)O)[C@@H](C)O` (stereo partly shown) [ICG-pHLIP] (H-AC(X1)DDQNPWRAYLDLLFPTDTLLLDLLWA-OH), the “Concentration in blood, Mean ± St. D.” value ([1]; 5 min p.i.) is reported as 2.28 ± 0.23 nmol, the Concentration in blood ([1]; 5 min p.i.) is reported as 2.56 nmol and 2.09 nmol and 2.47 nmol and 2.02 nmol and 2.24 nmol and the “Concentration in blood, Mean ± St. D.” value ([1]; 1 hour p.i.) is reported as 1.25 ± 0.35 nmol. The Concentration in blood ([1]; 1 hour p.i.) was 1.40 nmol and 1.31 nmol and 1.73 nmol and 0.93 nmol and 0.88 nmol, the “Concentration in blood, Mean ± St. D.” value ([1]; 2 hours p.i.) was 0.59 ± 0.15 nmol and the Concentration in blood ([1]; 2 hours p.i.) was 0.64 nmol and 0.40 nmol and 0.67 nmol and 0.47 nmol and 0.76 nmol. For the same molecule, the “Concentration in blood, Mean ± St. D.” value ([1]; 4 hours p.i.) was 0.51 ± 0.07 nmol, the Concentration in blood ([1]; 4 hours p.i.) was 0.41 nmol and 0.49 nmol and 0.57 nmol (2×) and 0.48 nmol and the “Concentration in blood, Mean ± St. D.” value ([1]; 6 hours p.i.) was 0.38 ± 0.06 nmol. The Concentration in blood ([1]; 6 hours p.i.) was 0.41 nmol and 0.38 nmol and 0.32 nmol and 0.35 nmol and 0.46 nmol, the “Concentration in blood, Mean ± St. D.” value ([1]; 16 hours p.i.) was 0.12 ± 0.03 nmol and the Concentration in blood ([1]; 16 hours p.i.) was 0.11 nmol and 0.13 nmol and 0.10 nmol and 0.16 nmol and 0.08 nmol. The “Concentration in blood, Mean ± St. D.” value ([1]; 26 hours p.i.) was 0.02 ± 0.01 nmol, the Concentration in blood ([1]; 26 hours p.i.) was 0.02 nmol (3×) and 0.03 nmol (2×) and the half-life ([1]; female, BALB/cAcNHsd, mouse, whole blood, intravenous, 0.5 mg/kg, two-phase kinetics, read-out: characteristic half lifetime of blood clearance, first phase (converted)) was 36 min. The “characteristic time for complete clearance of the blood, second phase” value ([1]; two-phase kinetics) was 7.5 h, the “signal drop in first phase of blood clearance” value ([1]; two-phase kinetics) was 66% and the “time the fluorescence stays within the tumor” value (4T1 tumor; 4T1 tumor) was “up to 26 hours”. The “Fluorescence intensity, Bone” value (4T1 tumor; 5 min p.i.) was 79.4 ± 8.1 a.u, the “Fluorescence intensity, Brain” value (4T1 tumor; 5 min p.i.) was 167.0 ± 22.5 a.u and the “Fluorescence intensity, Heart” value (4T1 tumor; 5 min p.i.) was 198.1 ± 15.9 a.u. For the same molecule, the “Fluorescence intensity, Kidneys” value (4T1 tumor; 5 min p.i.) was 171.7 ± 18.4 a.u, the “Fluorescence intensity, L. Intest.” value (4T1 tumor; 5 min p.i.) was 37.1 ± 7.9 a.u and the “Fluorescence intensity, Liver” value (4T1 tumor; 5 min p.i.) was 419.8 ± 37.9 a.u. For the same molecule, the “Fluorescence intensity, Lungs” value (4T1 tumor; 5 min p.i.) was 216.6 ± 2.7 a.u, the “Fluorescence intensity, Muscle” value (4T1 tumor; 5 min p.i.) was 22.2 ± 20.3 a.u and the “Fluorescence intensity, Pancreas” value (4T1 tumor; 5 min p.i.) was 153.2 ± 34.7 a.u. For the same molecule, the “Fluorescence intensity, S. Intest.” value (4T1 tumor; 5 min p.i.) was 42.4 ± 12.2 a.u, the “Fluorescence intensity, Skin” value (4T1 tumor; 5 min p.i.) was 27.9 ± 16.4 a.u and the “Fluorescence intensity, Spleen” value (4T1 tumor; 5 min p.i.) was 154.6 ± 9.0 a.u. For the same molecule, the “Fluorescence intensity, Stomach” value (4T1 tumor; 5 min p.i.) was 91.7 ± 13.4 a.u, the “Fluorescence intensity, Tumor” value (4T1 tumor; 5 min p.i.) was 36.2 ± 6.0 a.u and the “Fluorescence intensity, Bone” value (4T1 tumor; 1 hour p.i.) was 74.0 ± 13.1 a.u. The “Fluorescence intensity, Brain” value (4T1 tumor; 1 hour p.i.) was 137.7 ± 8.9 a.u, the “Fluorescence intensity, Heart” value (4T1 tumor; 1 hour p.i.) was 179.6 ± 16.4 a.u and the “Fluorescence intensity, Kidneys” value (4T1 tumor; 1 hour p.i.) was 193.7 ± 10.6 a.u. The “Fluorescence intensity, L. Intest.” value (4T1 tumor; 1 hour p.i.) was 28.4 ± 17.9 a.u, the “Fluorescence intensity, Liver” value (4T1 tumor; 1 hour p.i.) was 533.0 ± 16.7 a.u and the “Fluorescence intensity, Lungs” value (4T1 tumor; 1 hour p.i.) was 194.7 ± 6.2 a.u. For the same molecule, the “Fluorescence intensity, Muscle” value (4T1 tumor; 1 hour p.i.) was 8.2 ± 18.2 a.u, the “Fluorescence intensity, Pancreas” value (4T1 tumor; 1 hour p.i.) was 132.7 ± 24.5 a.u and the “Fluorescence intensity, S. Intest.” value (4T1 tumor; 1 hour p.i.) was 71.9 ± 16.9 a.u. For the same molecule, the “Fluorescence intensity, Skin” value (4T1 tumor; 1 hour p.i.) was 39.1 ± 9.0 a.u, the “Fluorescence intensity, Spleen” value (4T1 tumor; 1 hour p.i.) was 157.8 ± 4.4 a.u and the “Fluorescence intensity, Stomach” value (4T1 tumor; 1 hour p.i.) was 99.1 ± 23.0 a.u. For the same molecule, the “Fluorescence intensity, Tumor” value (4T1 tumor; 1 hour p.i.) was 100.5 ± 38.5 a.u, the “Fluorescence intensity, Bone” value (4T1 tumor; 2 hours p.i.) was 57.5 ± 23.4 a.u and the “Fluorescence intensity, Brain” value (4T1 tumor; 2 hours p.i.) was 82.2 ± 17.4 a.u. The “Fluorescence intensity, Heart” value (4T1 tumor; 2 hours p.i.) was 167.6 ± 12.2 a.u, the “Fluorescence intensity, Kidneys” value (4T1 tumor; 2 hours p.i.) was 156.0 ± 14.1 a.u and the “Fluorescence intensity, L. Intest.” value (4T1 tumor; 2 hours p.i.) was 6.4 ± 14.4 a.u. The “Fluorescence intensity, Liver” value (4T1 tumor; 2 hours p.i.) was 542.6 ± 26.8 a.u, the “Fluorescence intensity, Lungs” value (4T1 tumor; 2 hours p.i.) was 177.0 ± 10.4 a.u and the “Fluorescence intensity, Muscle” value (4T1 tumor; 2 hours p.i.) was 0.0 ± 0.0 a.u. For the same molecule, the “Fluorescence intensity, Pancreas” value (4T1 tumor; 2 hours p.i.) was 89.0 ± 32.0 a.u, the “Fluorescence intensity, S. Intest.” value (4T1 tumor; 2 hours p.i.) was 47.1 ± 13.9 a.u and the “Fluorescence intensity, Skin” value (4T1 tumor; 2 hours p.i.) was 32.0 ± 18.1 a.u. The “Fluorescence intensity, Spleen” value (4T1 tumor; 2 hours p.i.) was 136.9 ± 7.7 a.u.

From patent US20180369425A1, “LINKED AND OTHER pH-TRIGGERED COMPOUNDS” (priority 2017, published 2018)
